Molecular target: Calmodulin (human full-length CaM, Ca2+-loaded) (human, UniProt P0DP23 1-149)
Test: cross-linking

binding result: binds
B1: p85α cSH2 domain V663K/V667N/L687F/L691V/L696N (residues 614-724) (domain or fragment)
chain: EDLPHHDEKTWNVGSSNRNKAENLLRGKRDGTFLVRESSKQGCYACSVVKDGENKHCVINKTATGYGFAEPYNFYSSVKELVNHYQHTSLVQHNDSLNVTLAYPVYAQQRR
